Results reported in the supplement of paper PMC9112550, “Optimization of the antimicrobial peptide Bac7 by deep mutational scanning” (BMC Biology, 2022).

Test system: Escherichia coli TOP10
Experiment: shrunken log2 fold change of peptide-encoding DNA abundance (4.5 h post-induction vs induction); higher = less antimicrobial activity (less host growth inhibition)
Settings: time post-induction: 4.5 h; library: site-saturation at positions 5, 18, 19, 20
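Further: peptides expressed intracellularly from a pBAD plasmid library in pooled LB shake-flask culture, induced with 0.3% L-arabinose, DNA abundance read by NGS, three biological replicates, DESeq2 with apeglm shrinkage.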

| Sequence | shrunken log2 fold change |
| --- | --- |
| RRIRYRPPRLPRPRPRPSITPRP | -0.857 |
| RRIRYRPPRLPRPRPRPSKQPRP | -0.137 |
| RRIRYRPPRLPRPRPRPSLGPRP | -0.297 |
| RRIRYRPPRLPRPRPRPSLIPRP | -1.15 |
| RRIRYRPPRLPRPRPRPSLSPRP | -0.623 |
| RRIRYRPPRLPRPRPRPSMQPRP | -0.288 |
| RRIRYRPPRLPRPRPRPSNKPRP | -0.953 |
| RRIRYRPPRLPRPRPRPSPKPRP | -0.105 |
| RRIRYRPPRLPRPRPRPSPTPRP | -0.167 |
| RRIRYRPPRLPRPRPRPSQCPRP | -0.115 |
| RRIRYRPPRLPRPRPRPSQFPRP | -0.257 |
| RRIRYRPPRLPRPRPRPSQKPRP | -0.359 |
| RRIRYRPPRLPRPRPRPSSQPRP | -0.261 |
| RRIRYRPPRLPRPRPRPSTGPRP | -0.0197 |
| RRIRYRPPRLPRPRPRPSTSPRP | 1.42 |
| RRIRYRPPRLPRPRPRPSVTPRP | -0.421 |
| RRIRYRPPRLPRPRPRPSWSPRP | -0.179 |
| RRIRYRPPRLPRPRPRPSYRPRP | -0.0896 |
| RRIRYRPPRLPRPRPRPTCVPRP | -0.503 |
| RRIRYRPPRLPRPRPRPTDYPRP | -0.746 |
| RRIRYRPPRLPRPRPRPTHFPRP | 0.262 |
| RRIRYRPPRLPRPRPRPTHPPRP | -0.311 |

| Sequence | shrunken log2 fold change |
| --- | --- |
| RRIRYRPPRLPRPRPRPTIPPRP | -0.572 |
| RRIRYRPPRLPRPRPRPTITPRP | -0.665 |
| RRIRYRPPRLPRPRPRPTKQPRP | 0.0156 |
| RRIRYRPPRLPRPRPRPTKTPRP | -0.0705 |
| RRIRYRPPRLPRPRPRPTKWPRP | -0.489 |
| RRIRYRPPRLPRPRPRPTNNPRP | -1.14 |
| RRIRYRPPRLPRPRPRPTPTPRP | 0.451 |
| RRIRYRPPRLPRPRPRPTYDPRP | -0.73 |
| RRIRYRPPRLPRPRPRPVAQPRP | 0.128 |
| RRIRYRPPRLPRPRPRPVAVPRP | 3.17 |
| RRIRYRPPRLPRPRPRPVCHPRP | -0.583 |
| RRIRYRPPRLPRPRPRPVCRPRP | -0.0607 |
| RRIRYRPPRLPRPRPRPVDAPRP | -0.42 |
| RRIRYRPPRLPRPRPRPVDTPRP | -0.204 |
| RRIRYRPPRLPRPRPRPVEDPRP | -0.0671 |
| RRIRYRPPRLPRPRPRPVENPRP | -0.0898 |
| RRIRYRPPRLPRPRPRPVETPRP | -0.0299 |
| RRIRYRPPRLPRPRPRPVFMPRP | -0.484 |
| RRIRYRPPRLPRPRPRPVGCPRP | -0.284 |
| RRIRYRPPRLPRPRPRPVGEPRP | 0.207 |
| RRIRYRPPRLPRPRPRPVHDPRP | -0.372 |
| RRIRYRPPRLPRPRPRPVHRPRP | -0.462 |

| Sequence | shrunken log2 fold change |
| --- | --- |
| RRIRYRPPRLPRPRPRPVHVPRP | -1.35 |
| RRIRYRPPRLPRPRPRPVINPRP | -0.338 |
| RRIRYRPPRLPRPRPRPVIQPRP | -0.607 |
| RRIRYRPPRLPRPRPRPVMQPRP | -0.315 |
| RRIRYRPPRLPRPRPRPVPMPRP | -0.158 |
| RRIRYRPPRLPRPRPRPVPWPRP | 0.277 |
| RRIRYRPPRLPRPRPRPVQKPRP | 0.0112 |
| RRIRYRPPRLPRPRPRPVQVPRP | 0.0039 |
| RRIRYRPPRLPRPRPRPVRVPRP | 0.0746 |
| RRIRYRPPRLPRPRPRPVTDPRP | -0.418 |
| RRIRYRPPRLPRPRPRPVTMPRP | -0.688 |
| RRIRYRPPRLPRPRPRPVVLPRP | -0.397 |
| RRIRYRPPRLPRPRPRPVWCPRP | -0.0399 |
| RRIRYRPPRLPRPRPRPVWMPRP | -0.283 |
| RRIRYRPPRLPRPRPRPVYTPRP | -0.499 |
| RRIRYRPPRLPRPRPRPWAHPRP | -0.324 |
| RRIRYRPPRLPRPRPRPWASPRP | -0.154 |
| RRIRYRPPRLPRPRPRPWCIPRP | 0.0404 |
| RRIRYRPPRLPRPRPRPWCMPRP | -0.383 |
| RRIRYRPPRLPRPRPRPWDAPRP | -0.796 |
| RRIRYRPPRLPRPRPRPWDVPRP | -0.114 |
| RRIRYRPPRLPRPRPRPWEEPRP | -0.0122 |

| Sequence | shrunken log2 fold change |
| --- | --- |
| RRIRYRPPRLPRPRPRPWERPRP | 0.0306 |
| RRIRYRPPRLPRPRPRPWLDPRP | -0.225 |
| RRIRYRPPRLPRPRPRPWLNPRP | -0.367 |
| RRIRYRPPRLPRPRPRPWLSPRP | -0.205 |
| RRIRYRPPRLPRPRPRPWMAPRP | -0.288 |
| RRIRYRPPRLPRPRPRPWMTPRP | -0.663 |
| RRIRYRPPRLPRPRPRPWQQPRP | -0.273 |
| RRIRYRPPRLPRPRPRPWTTPRP | -0.000803 |
| RRIRYRPPRLPRPRPRPWVDPRP | -0.445 |
| RRIRYRPPRLPRPRPRPWWHPRP | -0.757 |
| RRIRYRPPRLPRPRPRPWWQPRP | -0.00151 |
| RRIRYRPPRLPRPRPRPWYYPRP | -0.00865 |
| RRIRYRPPRLPRPRPRPYAVPRP | -0.85 |
| RRIRYRPPRLPRPRPRPYCPPRP | -0.848 |
| RRIRYRPPRLPRPRPRPYCVPRP | -1.71 |
| RRIRYRPPRLPRPRPRPYDKPRP | -1.24 |
| RRIRYRPPRLPRPRPRPYDTPRP | -0.149 |
| RRIRYRPPRLPRPRPRPYDWPRP | -0.886 |
| RRIRYRPPRLPRPRPRPYELPRP | -0.0164 |
| RRIRYRPPRLPRPRPRPYFCPRP | -1.09 |
| RRIRYRPPRLPRPRPRPYFHPRP | -1.4 |
| RRIRYRPPRLPRPRPRPYGDPRP | -0.525 |

| Sequence | shrunken log2 fold change |
| --- | --- |
| RRIRYRPPRLPRPRPRPYHEPRP | -0.194 |
| RRIRYRPPRLPRPRPRPYHMPRP | -0.00245 |
| RRIRYRPPRLPRPRPRPYHPPRP | -0.152 |
| RRIRYRPPRLPRPRPRPYKHPRP | -1.18 |
| RRIRYRPPRLPRPRPRPYKKPRP | -0.00195 |
| RRIRYRPPRLPRPRPRPYLCPRP | -1.35 |
| RRIRYRPPRLPRPRPRPYLGPRP | -0.261 |
| RRIRYRPPRLPRPRPRPYMTPRP | -0.271 |
| RRIRYRPPRLPRPRPRPYNFPRP | -0.246 |
| RRIRYRPPRLPRPRPRPYNSPRP | -0.102 |
| RRIRYRPPRLPRPRPRPYPAPRP | -0.641 |
| RRIRYRPPRLPRPRPRPYQSPRP | 0.0169 |
| RRIRYRPPRLPRPRPRPYRPPRP | -0.0134 |
| RRIRYRPPRLPRPRPRPYSEPRP | -0.199 |
| RRIRYRPPRLPRPRPRPYTFPRP | 0.041 |
| RRIRYRPPRLPRPRPRPYVCPRP | -1.14 |
| RRIRYRPPRLPRPRPRPYVQPRP | -1.25 |
| RRIRYRPPRLPRPRPRPYWGPRP | -0.0899 |
| RRIRYRPPRLPRPRPRPYWPPRP | -0.0534 |
| RRIRYRPPRLPRPRPRPYYTPRP | -0.0958 |
